From article PMC3673982 (PLoS ONE, 2013) come the findings set out here.

This data set concerns the molecule itself. Kind of data set: cross-linking; 35 µM protein in 50 mM phosphate pH 7.4, 150 mM NaCl, preincubated at 37°C for 30 min; BS2G d0/d4 at 20-fold molar excess (50- and 100-fold also tested), 1 h on ice, quenched with Tris; read by 4-20% SDS-PAGE with Coomassie stain.

B1: Human recombinant αA-G98R crystallin (natural protein, UniProt P02489 1-173, looked up)
chain: MDVTIQHPWFKRTLGPFYPSRLFDQFFGEGLFEYDLLPFLSSTISPYYRQSLFRTVLDSGISEVRSDRDKFVIFLDVKHFSPEDLTVKVQDDFVEIHRKHNERQDDHGYISREFHRRYRLPSNVDQSALSCSLSADGMLTFCGPKIQTGLDATHAERAIPVSREEKPTSAPSS
Regarding B1, the binding result is “binds”.
